± gives the standard deviation of the averaged measurements.
Assay: total protein half-life in vivo (active degradation + dilution); higher = more stable protein
[1] = E. coli NCM3722 delta-clpP delta-lon delta-hslV, growth: N-lim chemostat, doubling time 6 h
[2] = E. coli NCM3722 delta-clpP, growth: N-lim chemostat, doubling time 6 h
[3] = E. coli NCM3722 delta-hslV, growth: N-lim chemostat, doubling time 6 h
[4] = E. coli NCM3722 delta-lon, growth: N-lim chemostat, doubling time 6 h
[5] = E. coli NCM3722 delta-smpB, growth: N-lim chemostat, doubling time 6 h
[6] = wild type E. coli NCM3722, growth: C-lim chemostat, doubling time 3 h
[7] = wild type E. coli NCM3722, growth: C-lim chemostat, doubling time 6 h
[8] = wild type E. coli NCM3722, growth: C-lim chemostat, doubling time 12 h
[9] = wild type E. coli NCM3722, growth: N-lim chemostat, doubling time 6 h
[10] = wild type E. coli NCM3722, growth: N-lim chemostat, doubling time 12 h
[11] = wild type E. coli NCM3722, growth: P-lim chemostat, doubling time 6 h
[12] = wild type E. coli NCM3722, growth: P-lim chemostat, doubling time 12 h

Row | Sequence | total protein half-life in vivo [1] [h] | total protein half-life in vivo [2] [h] | total protein half-life in vivo [3] [h] | total protein half-life in vivo [4] [h] | total protein half-life in vivo [5] [h] | total protein half-life in vivo [6] [h] | total protein half-life in vivo [7] [h] | total protein half-life in vivo [8] [h] | total protein half-life in vivo [9] [h] | total protein half-life in vivo [10] [h] | total protein half-life in vivo [11] [h] | total protein half-life in vivo [12] [h]
1 | MQFSTTPTLEGQTIVEYCGVVTGEAILGANIFRDFFAGIRDIVGGRSGAYEKELRKAREIAFEELGSQARALGADAVVGIDIDYETVGQNGSMLMVSVSGTAVKTRR [P0A8C1] | 4.49 ± 0.27 | 4.01 ± 0.34 | 3.9 ± 0.47 | 4.39 ± 0.13 | 4.26 ± 0.15 | 2.918 ± 0.013 | 5.49 ± 0.17 | 10.2 ± 3.2 | 3.84 ± 0.47 | 6.45 ± 0.22 | 5.53 ± 0.24 | 12.2 ± 0.14
2 | MQILKVIGLLMEYPDELLWECKEDALALIRRDAPMLTDFTHNLLNAPLLDKQAEWCEVFDRGRTTSLLLFEHVHAESRDRGQAMVDLLAEYEKVGLQLDCRELPDYLPLYLEYLSVLPDDQAKEGLLNVAPILALLGGRLKQREAPWYALFDALLQLAGSSLSSDSVTKQVNSEERDDTRQALDAVWEEEQVKFIEDNATACDSSPLNQYQRRFSQDVAPQYVDISAGGGK | 3.93 ± 0.43 | 1.45 | 0.577 | 0.917 | 0.553 |  | 1.45 ± 0.12 | 1.78 | 0.752 ± 0.1 | 0.75 |  | 1.94 ± 0.61
3 | MQKKSIYVAYTGGTIGMQRSEQGYIPVSGHLQRQLALMPEFHRPEMPDFTIHEYTPLMDSSDMTPEDWQHIAEDIKAHYDDYDGFVILHGTDTMAYTASALSFMLENLGKPVIVTGSQIPLAELRSDGQINLLNALYVAANYPINEVTLFFNNRLYRGNRTTKAHADGFDAFASPNLPPLLEAGIHIRRLNTPPAPHGEGELIVHPITPQPIGVVTIYPGISADVVRNFLRQPVKALILRSYGVGNAPQNKAFLQELQEASDRGIVVVNLTQCMSGKVNMGGYATGNALAHAGVIGGADMTVEATLTKLHYLLSQELDTETIRKAMSQNLRGELTPDD [P0A962] | 5.54 ± 0.6 | 5.31 ± 0.36 | 6.03 ± 0.21 | 5.69 ± 0.17 | 5 ± 0.11 | 3.18 ± 0.034 | 5.81 ± 0.83 | 12 ± 1.2 | 5.74 ± 0.28 | 10.9 ± 0.4 | 5.81 ± 0.6 | 11.5 ± 1.4
4 | MQKVKLPLTLDPVRTAQKRLDYQGIYTPDQVERVAESVVSVDSDVECSMSFAIDNQRLAVLNGDAKVTVTLECQRCGKPFTHQVYTTYCFSPVRSDEQAEALPEAYEPIEVNEFGEIDLLAMVEDEIILALPVVPVHDSEHCEVSEADMVFGELPEEAQKPNPFAVLASLKRK [P0AB28] | 5.71 ± 1.6 | 5.08 ± 1.3 | 3.49 ± 0.1 | 3.58 ± 0.24 | 3.21 ± 0.78 | 1.93 ± 0.19 | 4.48 ± 0.12 | 7.12 ± 0.54 | 3.66 ± 0.32 | 5.22 ± 0.26 | 4.32 ± 0.3 | 8.64 ± 0.14
5 | MQLRKPATAILALALSAGLAQADDAAPAAGSTLDKIAKNGVIVVGHRESSVPFSYYDNQQKVVGYSQDYSNAIVEAVKKKLNKPDLQVKLIPITSQNRIPLLQNGTFDFECGSTTNNVERQKQAAFSDTIFVVGTRLLTKKGGDIKDFANLKDKAVVVTSGTTSEVLLNKLNEEQKMNMRIISAKDHGDSFRTLESGRAVAFMMDDALLAGERAKAKKPDNWEIVGKPQSQEAYGCMLRKDDPQFKKLMDDTIAQVQTSGEAEKWFDKWFKNPIPPKNLNMNFELSDEMKALFKEPNDKALN | 6.32 ± 0.97 | 6.45 ± 1.6 | 6.8 ± 0.39 | 7.14 ± 0.3 | 6.02 ± 0.43 | 3.26 ± 0.14 | 6.76 ± 0.34 | 11.3 ± 0.22 | 5.9 ± 0.54 | 14.1 ± 0.48 | 5.81 ± 0.41 | 13.2 ± 0.35
6 | MQNAGSLVVLGSINADHILNLQSFPTPGETVTGNHYQVAFGGKGANQAVAAGRSGANIAFIACTGDDSIGESVRQQLATDNIDITPVSVIKGESTGVALIFVNGEGENVIGIHAGANAALSPALVEAQRERIANASALLMQLESPLESVMAAAKIAHQNKTIVALNPAPARELPDELLALVDIITPNETEAEKLTGIRVENDEDAAKAAQVLHEKGIRTVLITLGSRGVWASVNGEGQRVPGFRVQAVDTIAAGDTFNGALITALLEEKPLPEAIRFAHAAAAIAVTRKGAQPSVPWREEIDAFLDRQR [P0A9J6] |  | 6.07 ± 2.1 | 4.44 ± 0.042 | 4.91 ± 0.38 | 4.54 ± 0.2 | 3.14 ± 0.1 | 5.66 ± 0.076 | 11.8 ± 0.53 | 4.74 ± 0.36 | 7.76 ± 0.41 | 5.878 ± 0.056 | 11.9 ± 0.91

Source: the supplement of paper PMC11246515
